The results in this text go back to patent publication US20260098102A1 (NATIONAL UNIVERSITY CORPORATION KOBE UNIVERSITY, published 2026).

One experiment deals with T1, human SIRPB (human, UniProt O00241 30-398).
T1 construct: whole, on cells; FLAG-tagged (pFLAG V5-DEST), on CHO-K1 cells; also called SIRPβ1; signal regulatory protein β1
Kind of experiment: flow cytometry on CHO-K1 cells expressing FLAG-tagged human SIRPB; PE anti-human IgG; MFI standardized to secondary antibody alone. On the procedure:
SIRPβ1 (signal regulatory protein β1: the amino acid sequence thereof is published as RefSeq accession number NP_006056) and SIRPγ (signal regulatory protein γ: the amino acid sequence thereof is published as RefSeq accession number NP_061026) are molecules belonging to the SIRPA family. In the present invention, “SIRPα” may be referred to as “SIRPA,” “SIRPβ1” may be referred to as […] and “SIRPγ” may be referred to as “SIRPG.” CHO-K1 cells were prepared in a 10% FBS-containing Ham's F-12K medium at 3.3×10⁵ cells/mL and cultured overnight at 37° C. under a 5% CO₂ condition. pFLAG V5-DEST-human SIRPβ, pFLAG V5-DEST-human SIRPG, or pFLAG V5-DEST was introduced into the cells using Lipofectamine LTX (Invitrogen), and cells were cultured in a 10% FBS-containing Ham's F-12K medium at 37° C. under a 5% CO₂ condition for 24 hours. The obtained introduced cells were collected and seeded on a 96-well plate. After the culture supernatant was removed, 100 μL per well of various anti-human SIRPA antibodies or various control human IgG was added to each of various gene introduced cells at a final concentration of 0 to 10,000 ng/mL, and the mixture was allowed to stand at 4° C. for 25 minutes. After the mixture was centrifuged, the supernatant was removed, and cells were washed twice with 5% FBS-containing PBS. After the mixture was centrifuged, the supernatant was removed, 50 μL per well of a 1/400 diluted solution of PE Mouse anti-Human IgG antibody (BioLegend) was added, and the mixture was allowed to stand at 4° C. for 25 minutes. After the mixture was centrifuged, the supernatant was removed, and cells were washed twice with 5% FBS-containing PBS.
(§1) After the mixture was centrifuged, and the supernatant was removed, cells were suspended in 100 μL per well of 1× BD Stabilizing Fixative (Becton Dickinson), and the cell count was measured by flow cytometry (FACS Canto II: Becton Dickinson). For data analysis, FlowJo (TreeStar) was used. Cells were characterized by detecting forward scattered (FSC) light and side-scattered (SSC) light, and then the mean fluorescence intensity of PE was calculated. Binding of various antibodies to the family molecules was calculated by standardizing the fluorescence intensity using the mean fluorescence intensity of a sample in which the secondary antibody alone was allowed to react.
On the technique in general: In flow cytometry, cells or beads pass a laser one at a time.

A further experiment addresses T2, human SIRPA_V1 protein (human, UniProt P78324 31-504).
T2 construct: Expressed on 293α cells from pcDNA3.2 V5-DEST or pFLAG V5-DEST (FLAG-tagged) vectors; also called human SIRPA Variant 1; hSIRPA V1
In words: blocking cell-based ELISA: peroxidase-labeled CD47-Fc (1 µg/mL) on 293α cells expressing SIRPA_V1. On the procedure:
(§2) After the culture supernatant of the human SIRPA_V1 or V2 expression vector-introduced 293 cells prepared in Example 9)-1 was removed, 50 μL per well of various anti-SIRPA antibodies or various control Human IgG diluted with 5% FBS-containing PBS to a final concentration of 0 to 10,000 ng/ml was added to each of pcDNA3.2 V5-DEST-SIRPA_V1 or V2-introduced 293α cells, immediately followed by addition of 50 µL per well of peroxidase-labeled CD47-Fc prepared with 5% FBS-containing PBS at 1 μg/mL, and the mixture was allowed to stand at 4° C. for one hour. Thereafter, the SIRPA-CD47 binding inhibitory activity was evaluated in the same manner as in 1)-6-3.
In general terms: In an ELISA, binding on a coated surface is turned into a signal by an enzyme label.

The target in a further experiment is T3, SIRPA_V2_IgV (human).
T3 construct: Secreted recombinant protein; The crystal model held residues 33 to 143 of human SIRPA Variant 2
T3 sequence (chain, as listed by the source limits assumed): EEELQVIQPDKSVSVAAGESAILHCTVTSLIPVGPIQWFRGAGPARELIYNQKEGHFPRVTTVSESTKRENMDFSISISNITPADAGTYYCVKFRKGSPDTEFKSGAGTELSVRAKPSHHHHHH
In words: SPR Biacore T200, antibody captured on anti-human IgG (Fc), SIRPA_V2_IgV as analyte (0.25 to 16 nM), 1:1 model. As for the experimental part:
(§3) The dissociation constants were measured by a capture method comprising capturing each antibody as a ligand to an Anti-Human IgG (Fc) antibody immobilized using Human Antibody Capture Kit (GE Healthcare Bioscience Corp.) and measuring an antigen as an analyte, using Biacore T200 (GE Healthcare Bioscience Corp.). HBS-EP+ (GE Healthcare Bioscience Corp.) was used as a running buffer, and CM5 (GE Healthcare Bioscience Corp.) was used as a sensor chip. Onto the chip, 2 μg/mL of various antibodies were added at 10 μL/min for 30 seconds, then a serially diluted solution (0.25 to 16 nM) of the human SIRPA protein as an antigen was added at a flow rate of 30 μL/min for 120 seconds, and subsequently the dissociation phase for 600 seconds was monitored. As a regenerant, 3 M magnesium chloride (GE Healthcare Bioscience Corp.) was added at a flow rate of 20 μL/min for 30 seconds. For data analysis, a binding rate constant (ka), a dissociation rate constant (kd), and a dissociation constant (KD; KD=kd/ka) were calculated using a 1:1 binding model.
(SPR reads the build-up and loss of mass on a sensor chip optically.)

A further experiment has as its target T4, human SIRPA_V2 protein (human, UniProt P78324 31-504).
T4 construct: Expressed on 293α cells from pcDNA3.2 V5-DEST or pFLAG V5-DEST (FLAG-tagged) vectors; also called human SIRPA Variant 2; ECD variant (full-length, amino acids 1 to 504)
In words: blocking cell-based ELISA: peroxidase-labeled CD47-Fc (1 µg/mL) on 293α cells expressing SIRPA_V2. As for the experimental part: as §2

The next experiment has as its target T5, SIRPA_V1_IgV (human, UniProt P78324 31-149).
T5 construct: Secreted recombinant protein from FreeStyle 293F cells
In words: SPR Biacore T200, antibody captured on anti-human IgG (Fc), SIRPA_V1_IgV as analyte (0.25 to 16 nM), 1:1 model. As for the experimental part:
as §3

The target in another experiment is T6, human SIRPG (human, UniProt Q9P1W8 29-387).
T6 construct: whole, on cells; FLAG-tagged (pFLAG V5-DEST), on CHO-K1 cells; also called SIRPγ; signal regulatory protein γ
T6 sequence (Q9P1W8 29-387): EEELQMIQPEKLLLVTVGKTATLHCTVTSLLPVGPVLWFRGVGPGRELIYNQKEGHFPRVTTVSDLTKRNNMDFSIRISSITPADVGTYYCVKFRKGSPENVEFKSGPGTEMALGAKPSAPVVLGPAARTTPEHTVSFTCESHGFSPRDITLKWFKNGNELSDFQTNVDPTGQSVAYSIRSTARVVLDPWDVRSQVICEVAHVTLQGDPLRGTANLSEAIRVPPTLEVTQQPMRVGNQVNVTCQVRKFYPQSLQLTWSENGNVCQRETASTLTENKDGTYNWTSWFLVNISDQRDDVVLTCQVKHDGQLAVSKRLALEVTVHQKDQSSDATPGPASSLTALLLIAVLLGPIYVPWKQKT
In words: flow cytometry on CHO-K1 cells expressing FLAG-tagged human SIRPG; PE anti-human IgG; MFI standardized to secondary antibody alone. As for the experimental part:
SIRPβ1 (signal regulatory protein β1: the amino acid sequence thereof is published as RefSeq accession number NP_006056) and SIRPγ (signal regulatory protein γ: the amino acid sequence thereof is published as RefSeq accession number NP_061026) are molecules belonging to the SIRPA family. In the present invention, “SIRPα” may be referred to as “SIRPA,” “SIRPβ1” may be referred to as […] and “SIRPγ” may be referred to as “SIRPG.” CHO-K1 cells were prepared in a 10% FBS-containing Ham's F-12K medium at 3.3×10⁵ cells/mL and cultured overnight at 37° C. under a 5% CO₂ condition. pFLAG V5-DEST-human SIRPβ, pFLAG V5-DEST-human SIRPG, or pFLAG V5-DEST was introduced into the cells using Lipofectamine LTX (Invitrogen), and cells were cultured in a 10% FBS-containing Ham's F-12K medium at 37° C. under a 5% CO₂ condition for 24 hours. The obtained introduced cells were collected and seeded on a 96-well plate. After the culture supernatant was removed, 100 μL per well of various anti-human SIRPA antibodies or various control human IgG was added to each of various gene introduced cells at a final concentration of 0 to 10,000 ng/mL, and the mixture was allowed to stand at 4° C. for 25 minutes. After the mixture was centrifuged, the supernatant was removed, and cells were washed twice with 5% FBS-containing PBS. […]
as §1, with “For data analysis, FlowJo (TreeStar) was used.” left out

T4 sequence (P78324 other isoform, or with tags, fused parts or gaps limits assumed): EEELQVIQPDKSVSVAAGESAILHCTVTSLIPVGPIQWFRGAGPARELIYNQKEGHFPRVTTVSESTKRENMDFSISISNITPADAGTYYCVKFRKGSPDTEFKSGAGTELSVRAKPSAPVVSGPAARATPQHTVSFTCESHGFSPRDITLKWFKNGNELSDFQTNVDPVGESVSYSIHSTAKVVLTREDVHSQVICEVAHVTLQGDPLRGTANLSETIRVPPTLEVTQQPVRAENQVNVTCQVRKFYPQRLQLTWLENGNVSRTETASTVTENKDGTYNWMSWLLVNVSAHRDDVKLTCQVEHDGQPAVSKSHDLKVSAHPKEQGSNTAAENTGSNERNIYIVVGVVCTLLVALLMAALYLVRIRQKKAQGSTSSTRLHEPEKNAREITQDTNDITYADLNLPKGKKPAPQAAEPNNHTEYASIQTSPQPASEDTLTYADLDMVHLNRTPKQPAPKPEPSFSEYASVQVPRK
T1 sequence (O00241 30-398): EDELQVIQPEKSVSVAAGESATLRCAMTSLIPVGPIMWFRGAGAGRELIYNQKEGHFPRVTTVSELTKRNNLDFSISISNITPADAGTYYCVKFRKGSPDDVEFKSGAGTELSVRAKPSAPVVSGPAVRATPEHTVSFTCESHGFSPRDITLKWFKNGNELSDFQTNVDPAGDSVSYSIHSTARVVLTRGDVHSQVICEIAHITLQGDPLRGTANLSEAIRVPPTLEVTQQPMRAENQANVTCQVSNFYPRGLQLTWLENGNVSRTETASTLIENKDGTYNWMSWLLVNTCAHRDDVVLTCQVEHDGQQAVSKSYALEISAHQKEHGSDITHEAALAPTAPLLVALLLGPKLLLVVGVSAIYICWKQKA
T5 sequence (P78324 other isoform, or with tags, fused parts or gaps limits assumed): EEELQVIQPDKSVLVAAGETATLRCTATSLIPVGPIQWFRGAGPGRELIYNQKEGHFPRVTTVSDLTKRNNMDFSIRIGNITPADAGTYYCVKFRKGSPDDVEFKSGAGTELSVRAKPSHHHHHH
T2 sequence (P78324 31-504 limits assumed): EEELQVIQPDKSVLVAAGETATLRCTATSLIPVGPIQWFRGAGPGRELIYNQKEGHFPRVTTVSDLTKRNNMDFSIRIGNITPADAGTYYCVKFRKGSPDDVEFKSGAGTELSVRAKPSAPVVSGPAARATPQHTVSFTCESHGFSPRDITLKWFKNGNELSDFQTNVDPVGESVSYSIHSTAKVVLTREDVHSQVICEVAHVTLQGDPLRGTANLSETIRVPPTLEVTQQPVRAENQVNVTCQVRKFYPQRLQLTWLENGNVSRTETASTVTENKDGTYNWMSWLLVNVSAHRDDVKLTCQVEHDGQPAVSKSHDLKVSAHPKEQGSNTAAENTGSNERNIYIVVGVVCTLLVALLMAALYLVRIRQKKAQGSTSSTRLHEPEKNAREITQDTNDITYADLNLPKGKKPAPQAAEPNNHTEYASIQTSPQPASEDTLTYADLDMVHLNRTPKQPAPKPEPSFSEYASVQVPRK

B1: ADU-1805 (antibody, human IgG2, kappa, V domains shown)
VH: EVQLVQSGAEVVKPGASVKLSCKASGSTFTSYWMHWVKQAPGQGLEWIGAIYPVNSDTTYNQKFKGKATLTVDKSASTAYMELSSLRSEDTAVYYCTRSFYYSLDAAWFVYWGQGTLVTVSS
VL: DIQMTQSPSSLSASVGDRVTITCRASQDIGSRLNWLQQKPGKAPKRLIYATSSLDSGVPSRFSGSGSGTEFTLTISSLQPEDFATYYCLQYASSPFTFGGGTKVEIKR
notes: IgG2 heavy chain; also called ADU-1805_hG2 / ADU-1805_hK
As to B1, the EC50 (read off the curve) (as a rule, the concentration that produces a half-maximal response) with human SIRPB is roughly 0.2 µg/mL. For the same molecule, the half-inhibitory concentration (IC50) (as a rule, the midpoint of a concentration-inhibition curve) with human SIRPA_V1 protein is 2.97 µg/mL; in the experiment with human SIRPA_V2 protein, 2.12 µg/mL. Further, the results for the dissociation constant (Kd) in the experiment with SIRPA_V2_IgV and in the experiment with SIRPA_V1_IgV were 6.32 nM and 4.39 nM, respectively. Further, the binding result in the experiment with human SIRPG is on record as “binds”.

B2: KWAR23 (antibody, human IgG4 S228P, kappa, V domains shown)
VH: EVQLQQSGAELVKPGASVKLSCTASGFNIKDYYIHWVQQRTEQGLEWIGRIDPEDGETKYAPKFQDKATITADTSSNTAYLHLSSLTSEDTAVYYCARWGAYWGQGTLVTVSA
VL: QIVLTQSPAIMSASPGEKVTLTCSASSSVSSSYLYWYQQKPGSSPKLWIYSTSNLASGVPARFSGSGSGTSYSLTISSMEAEDAASYFCHQWSSYPRTFGAGTKLELKR
notes: IgG4Pro heavy chain; also called KWAR23_hG4Pro / KWAR23_hK
With B2, in the experiment with human SIRPB, the binding result is listed as “binds”. Also, the figures for the IC50 with human SIRPA_V1 protein and with human SIRPA_V2 protein were 2.24 µg/mL and 2.19 µg/mL, respectively. The results for the Kd in the experiment with SIRPA_V2_IgV and with SIRPA_V1_IgV were 4.46 nM and 2.55 nM, respectively. For the same molecule, in the experiment with human SIRPG, the “EC50 (read off the curve)” value is roughly 0.03 µg/mL.
